Assay results taken from US5693502.

Key:
[1] = target: Taq DNA polymerase (rTaq) (Thermus aquaticus) (UniProt P19821); test: filter; details: room temperature
[2] = target: Tth DNA polymerase (rTth) (Thermus thermophilus) (UniProt P52028); test: filter
[3] = target: Taq DNA polymerase (rTaq) (Thermus aquaticus) (UniProt P19821); test: FP_none

Chain of Tth DNA polymerase (rTth) (Thermus thermophilus) (P52028 whole entry): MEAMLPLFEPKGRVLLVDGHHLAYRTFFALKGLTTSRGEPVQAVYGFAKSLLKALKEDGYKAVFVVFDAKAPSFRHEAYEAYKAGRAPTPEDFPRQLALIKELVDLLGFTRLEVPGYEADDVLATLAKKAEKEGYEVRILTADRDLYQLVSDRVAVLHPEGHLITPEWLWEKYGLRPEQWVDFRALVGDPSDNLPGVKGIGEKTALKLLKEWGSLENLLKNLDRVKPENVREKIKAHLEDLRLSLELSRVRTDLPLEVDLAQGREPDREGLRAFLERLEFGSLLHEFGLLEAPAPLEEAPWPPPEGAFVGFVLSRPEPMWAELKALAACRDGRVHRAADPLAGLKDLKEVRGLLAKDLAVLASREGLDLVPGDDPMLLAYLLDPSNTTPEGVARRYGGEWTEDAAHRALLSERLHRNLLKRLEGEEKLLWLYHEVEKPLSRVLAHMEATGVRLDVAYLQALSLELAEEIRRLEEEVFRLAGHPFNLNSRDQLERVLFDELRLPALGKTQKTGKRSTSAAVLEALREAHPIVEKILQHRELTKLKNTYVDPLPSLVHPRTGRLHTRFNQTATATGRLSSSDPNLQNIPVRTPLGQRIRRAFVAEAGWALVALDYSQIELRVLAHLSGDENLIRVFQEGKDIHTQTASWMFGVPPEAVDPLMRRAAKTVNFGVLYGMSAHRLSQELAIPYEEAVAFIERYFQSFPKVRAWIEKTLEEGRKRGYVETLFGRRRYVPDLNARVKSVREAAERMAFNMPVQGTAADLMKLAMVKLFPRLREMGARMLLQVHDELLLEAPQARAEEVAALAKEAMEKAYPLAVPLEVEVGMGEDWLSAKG
Chain of Taq DNA polymerase (rTaq) (Thermus aquaticus) (P19821 whole entry): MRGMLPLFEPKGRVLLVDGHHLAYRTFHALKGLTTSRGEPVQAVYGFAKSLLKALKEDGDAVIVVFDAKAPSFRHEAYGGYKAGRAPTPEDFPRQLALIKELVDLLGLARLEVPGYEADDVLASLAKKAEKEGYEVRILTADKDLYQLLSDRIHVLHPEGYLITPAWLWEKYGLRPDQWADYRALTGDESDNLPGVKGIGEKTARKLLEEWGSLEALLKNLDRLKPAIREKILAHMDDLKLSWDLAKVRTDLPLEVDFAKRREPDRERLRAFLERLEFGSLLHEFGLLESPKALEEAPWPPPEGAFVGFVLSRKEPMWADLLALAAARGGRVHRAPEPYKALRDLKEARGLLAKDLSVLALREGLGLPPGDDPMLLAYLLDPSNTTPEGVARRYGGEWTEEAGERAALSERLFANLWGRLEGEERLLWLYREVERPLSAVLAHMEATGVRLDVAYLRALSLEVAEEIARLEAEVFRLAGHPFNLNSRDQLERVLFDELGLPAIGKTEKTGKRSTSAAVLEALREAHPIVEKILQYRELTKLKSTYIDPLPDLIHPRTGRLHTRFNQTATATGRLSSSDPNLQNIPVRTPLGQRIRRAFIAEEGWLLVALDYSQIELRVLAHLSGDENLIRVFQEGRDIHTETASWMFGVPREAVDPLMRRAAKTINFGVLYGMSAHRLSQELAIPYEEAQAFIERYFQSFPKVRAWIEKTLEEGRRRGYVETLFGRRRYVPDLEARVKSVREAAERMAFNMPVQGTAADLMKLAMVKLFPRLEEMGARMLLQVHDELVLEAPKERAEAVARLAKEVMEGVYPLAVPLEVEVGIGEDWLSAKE

TTCTCGGTTGGTCTCTGGCGGAGCNNNNNNNNNNNNNNNNNNNNNNNNNNNNNNTCTTGTGTATGATTCGCTTTTCCC [Tth-enriched ssDNA pool (round 10)]
Kd ([1]; cross binding of Tth-selected pool, saturates at about 50%, about half of pool not interacting): 0.3 nM | Kd ([2]; 50 mM Bicine-KOH pH 8.3, 90 mM KCl, 3.5 mM Mn(OAc)2, tRNA, 0.01% hSA, room temperature): 5 nM

TTCTCGGTTGGTCTCTGGCGGAGCNNNNNNNNNNNNNNNNNNNNNNNNNNNNNNTCTTGTGTATGATTCGCTTTTCCC [Taq-enriched ssDNA pool (round 12)]
Kd ([2]; cross binding of Taq-selected pool, room temperature): 0.2 nM | Kd [3]: 3.5 nM

TTCTCGGTTGGTCTCTGGCGGAGCNNNNNNNNNNNNNNNNNNNNNNNNNNNNNNTCTTGTGTATGATTCGCTTTTCCC [unselected random 30N ssDNA pool]
Kd ([1]; unselected pool, 10 mM Tris-HCl pH 8.3, 50 mM KCl, 2.5 mM MgCl2, tRNA, 0.01% hSA): > 50 nM | Kd ([2]; unselected pool, Bicine-KOH pH 8.3, 90 mM KCl, 3.5 mM Mn(OAc)2, room temperature): 70 nM
